B1: PKM2^K305Q (acetylation mimic of K305) (enzyme)
chain: not shown
B2: PKM2^K422R (a patient-derived mutation) (enzyme)
chain: not shown
B3: PKM2^R399E (a dimeric mutant) (enzyme)
chain: not shown
B4: PKM2^Y105E (phosphorylation mimic of Y105) (enzyme)
chain: not shown

Tests used:
[1] = molecular target: the molecule itself; experiment: cell-based or functional assay
[2] = molecular target: the molecule itself; experiment: crystal structure; crystals grown at 18°C by hanging-drop vapor diffusion, protein 15-20 mg/mL, in the absence of FBP (malonate for K305Q, L-proline for Y105E)
[3] = molecular target: the molecule itself; experiment: SEC; gel filtration on Superdex 200 10/300 GL, in the presence of FBP; similar protein concentrations and conditions for all proteins

| Protein | normalized kcat/Km of pyruvate kinase activity (PKM2^WT as standard) in the presence of FBP [1] | stoichiometry N [2] | stoichiometry N [3] |
| --- | --- | --- | --- |
| B1 | 0.2 relative to kcat/Km of PKM2^WT | 4 | 2 |
| B2 |  |  | 4 |
| B3 |  | 4 |  |
| B4 |  | 4 |  |
